Legend:
[1] = biological target: Aβ1–42 labelled at the N-terminus with HiLyte Fluor 555 (Aβ555) (human) (UniProt P05067)
[2] = biological target: His-tagged Hsp20 wild type (UniProt O14558); assay: peptide array overlay (IB: His), spot densitometry; conditions: typical of n = 3; parent: est. 100; read off a plot

fold decrease in efficiency in disrupting the formation of Aβ555 fibrils and globular structures (self-quenching), against full-length S16D [1] | percent of parent (% Control (WT)) [2] | Substance
2 fold | – | Hsp20 N-terminal 25-mer peptide, S16D variant (in solution)
– | 110 | Aβ1–42 25mer peptide 1 (D1–G25; array spot) A21
– | 77 | Aβ1–42 25mer peptide 1 (D1–G25; array spot) A2

Source: article PMC4148482
